Experimental data published in patent CN114835814A.

Target: 人源PGII蛋白 (human pepsinogen II from human gastric mucosa, Lee Biosolutions, cat. 440-50) (human) (UniProt P20142)
Assay: indirect ELISA, human-derived PGII coated 2 μg/mL, culture supernatant diluted 50-fold

Chain of UniProt P20142 (P20142 17-388): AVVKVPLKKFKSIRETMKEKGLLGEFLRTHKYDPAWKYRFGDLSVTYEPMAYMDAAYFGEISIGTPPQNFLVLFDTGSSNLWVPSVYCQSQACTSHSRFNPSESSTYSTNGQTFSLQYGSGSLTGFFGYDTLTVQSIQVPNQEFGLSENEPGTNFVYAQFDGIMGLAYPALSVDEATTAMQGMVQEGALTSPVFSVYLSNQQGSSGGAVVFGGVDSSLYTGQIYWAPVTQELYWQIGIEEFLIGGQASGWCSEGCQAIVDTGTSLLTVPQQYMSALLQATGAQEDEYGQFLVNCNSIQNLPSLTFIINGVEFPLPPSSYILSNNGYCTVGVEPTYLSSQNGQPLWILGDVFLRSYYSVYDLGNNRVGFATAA

Row | OD450 | Binder
1 | 1.7 OD450 | 鼠单克隆抗体1A7 (antibody, V domains shown) VH: EVKLEESGGGLVQPGGSMKLSCVASGFAFSNYWMNWVRQSPEKGLEWVAEIRLKSNNYATHYAESVKGRFTISRDDSKSSVDLQMNNLRAEDTGTYYCNPFFYDYGYWGQGTTLTVSS VL: QIVLTQSPAILSASPGEKVTISCSASSSVSYMYWYQQKPGSSPKPWIYRTSNLASGVPARFSGSGSGTSYSLTISSMEAEDAATYYCQQYHSYPRTFGGGTKLEIK
2 | 1.72 OD450 | 鼠单克隆抗体3G10 (antibody, part only; not given: Light chain variable domain, V domains shown, part only) VH: EVQLQQSGAELVKPGASVKLSCTASGFNIKDSYIHWVTQRPDQGLEWIGMIDPTNDNIRYDPKFQGRATITADTSSNTAYLQLSSLTSEDTAVYFCARDGTSLDYWGQGTSLTVSS
